Laboratory results as given in article PMC12561408, “AI‐Driven De Novo Design of Ultra Long‐Acting GLP‐1 Receptor Agonists” (Advanced Science, 2025).

Legend:
Assay in all cases: SPR
Details in all cases: both partners purified
[1] = target: T1, GST-peptide fusion protein D41
T1 construct: source: E. coli BL21 (DE3), GST-peptide fusion; not shown: GST, N-terminal, kept

[2] = target: T2, GST-peptide fusion protein D44
T2 construct: source: E. coli BL21 (DE3), GST-peptide fusion; not shown: GST, N-terminal, kept

[3] = target: T3, GST-peptide fusion protein D13
T3 construct: source: E. coli BL21 (DE3), GST-peptide fusion; not shown: GST, N-terminal, kept

B1: Human GLP-1R protein (receptor)
chain: RPQGATVSLWETVQKWREYRRQCQRSLTEDPPPATDLFCNRTFDEYACWPDGEPGSFVNVSCPWYLPWASSVPQGHVYRFCTAEGLWLQKDNSSLPWRDLSECEESKRGERSSPEE
Kd [1]: 5.19 µM
Kd [2]: 6.78 µM
Kd [3]: 8.58 µM
